Biological target: streptavidin (UniProt P22629 P22629:25-183)
Test: EMSA; half-maximum binding (C1/2) via biotin on the adduct; reversed by free d-biotin; 100 mM NaCl, MgCl2, pH 7.4, room temperature
Settings: tags: Pierce; chain copies: 4; label: 5' 32P
Description: Gel Mobility Shift Assay. […] A constant amount of the lesioned U-17 (3200 cpm, ~0.1 nM) was used in each incubation, with the concentration of streptavidin varied from 0 to 50 nM. Free d-biotin (0.4 mM) was added into the incubation(s) where indicated. After electrophoresis, the gel was dried and exposed to x-ray film with an intensifying screen. The dried gel was also exposed to a PhorphorImager screen and the data were analyzed with IMAGEQUANT software (Molecular Dynamics, Sunnyvale, Calif.).

streptavidin, sequence (P22629 25-183, one chain of several): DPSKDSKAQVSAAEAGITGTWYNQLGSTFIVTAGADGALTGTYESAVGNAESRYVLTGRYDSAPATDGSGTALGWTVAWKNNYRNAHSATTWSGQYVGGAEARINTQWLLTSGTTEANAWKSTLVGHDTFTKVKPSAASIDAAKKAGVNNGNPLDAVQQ

B1: TMP-biotin monoadducted U-17 (dsDNA)
DNA 1: CGGCCGTACGUGCGCCG
DNA 2: CGGCGCACGTACGGCCG
modifications: TMP-biotin (psoralen-biotin) monoadduct at T7 of the central TA; deoxyuridine at position 11
Question: With B1 as the binder, how does the Kd read?
Answer: ~1.5 nM
